Source: paper PMC8064889 (2021)

Molecular target: SARS-CoV-2 RBD, His6-tagged, for biolayer interferometry (SARS-CoV-2, UniProt P0DTC2 319-541)
Experiment: BLI

B1: 47D1 Fab (Fab, V domains shown)
VH: QVQLVQSGAEVKKPGSSVRVSCKASGGTFSTYPISWVRQAPGQGLEWMGGIIPIFGTAKSAQKFQGRVTITADEFTSTAYMEMSSLRSEDTAMYYCAREGRRYGSGWYISTGYFDYWGQGTLVTVSS
VL: QLVLTQPASVSGSPGQSIIVSCTGTSSDVGGYKFVSWYQQHPGKAPRVMIYDVSNRPSGVSNRFSGSKSGNTASLTISGLQADDEADYYCSSYTNSSTVVFGGGTKVTVL
In the case of B1, the Kd is reported as 2 nM.
